Measured values from article PMC12582304, “Asymmetric gating of a homopentameric ion channel GLIC revealed by cryo-EM” (Proceedings of the National Academy of Sciences of the …, 2025).

Target: the molecule itself
Experiment: cryo-EM structure; nanodisc-reconstituted GLIC-WT at pH 4.0; earlier dataset (ref. 44) reprocessed with symmetry expansion, focused classification and particle reorientation; C5 or no symmetry imposed

B1: Gloeobacter violaceus proton-gated ion channel (GLIC), wild type (natural protein)
chain: VSPPPPIADEPLTVNTGIYLIECYSLDDKAETFKVNAFLSLSWKDRRLAFDPVRSGVRVKTYEPEAIWIPEIRFVNVENARDADVVDISVSPDGTVQYLERFSARVLSPLDFRRYPFDSQTLHIYLIVRSVDTRNIVLAVDLEKVGKNDDVFLTGWDIESFTAVVKPANFALEDRLESKLDYQLRISRQYFSYIPNIILPMLFILFISWTAFWSTSYEANVTLVVSTLIAHIAFNILVETNLPKTPYMTYTGAIIFMIYLFYFVAVIEVTVQHYLKVESQPARAASITRASRIAFPVVFLLANIILAFLFFG
notes: GLIC, proton-gated pentameric ligand-gated ion channel of Gloeobacter violaceus; Homopentamer in DOPE/POPC/POPS nanodiscs; As I recall, the construct is the mature channel without its signal peptide, about 317 residues; also called GLIC-WT; WT; source: E. coli C41, purified (amylose resin, SEC), nanodisc-reconstituted
stoichiometry N: 5
